Paper PMC10945505

Tests used:
F-FGF21∆N = F-FGF21∆N (UniProt Q9NSA1); test: BLI; Octet Red 96, 30°C, 1000 rpm; F-FGF21 proteins at 50 nM captured on AHC (anti-hIgG Fc capture) biosensors, βKlotho in running buffer at 0.2743-200 nM; global fit, 1:1 binding model, monovalent KD
F-FGF21FL = F-FGF21FL (UniProt Q9NSA1); test: as above

Kd (F-FGF21∆N): 11.8 nM
koff (F-FGF21∆N): 0.00195 s⁻¹
kon (F-FGF21∆N): 166000 M⁻¹ s⁻¹
Kd (F-FGF21FL): 10.1 nM
koff (F-FGF21FL): 0.00124 s⁻¹
kon (F-FGF21FL): 122000 M⁻¹ s⁻¹
Substance: Human βKlotho (from UniProt Q86Z14 1-996) (receptor)
